± gives the uncertainty stated by the source.
Assay: amyloid nucleation score (Sup35N fusion, yeast selection) (log enrichment); library NNK1; higher = more nucleation; inactive = no reads after selection
Summary of the method: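 The nucleation score equals the log enrichment of output over input reads from DiMSum, centred on the mode score of non-aggregating sequences. It was computed only for sequences with 100 or more input reads. The reads came from Illumina sequencing of plasmid inserts from psi-negative yeast expressing Sup35N fused to peptides of 20 random codons, induced with 100 μM copper sulfate for 24 hours and grown 7 days at 30°C without adenine and uracil.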

| Substance | amyloid nucleation score |
| --- | --- |
| TAGLIILINSYASGRLTGDP | 6.639 ± 0.049 |
| TAILLNVFKCSIFWVALK | -0.691 ± 0.72 |
| TAIWTSIIDL | 0.96 ± 0.42 |
| TASLLLTLLFGLPEGLLW | 0.975 ± 0.3 |
| TCCVKCGCRVQRMMMCLV | -0.003 ± 0.8 |
| TCEESEDDGGIMAVPDWM | -0.42 ± 0.57 |
| TCIISTDGCMQAGHFVGDRR | -0.69 ± 0.54 |
| TCIVSWWYSQDGSWEMCLQR | inactive |
| TCKTCLR | 0.858 ± 1.1 |
| TCRESMRYVDNGLAFYSWFY | -0.983 ± 0.56 |
| TCRKTTMQRRSTHNLVKCDE | -1.47 ± 2.7 |
| TCRTEKTNTELMG | 1.78 ± 0.6 |
| TCVSYTP | 1.75 ± 0.56 |
| TCYGQAVFLTDCSGRWDIYE | 3.34 ± 0.16 |
| TCYLSDSLASY | -0.328 ± 0.54 |
| TDARTR | 1.15 ± 0.36 |
| TDCHALRMWIFAGFWWHNFS | -1.04 ± 0.84 |
| TDQVWMLVSRRFKHFRHIEV | 1.38 ± 0.2 |
| TEDAQRGD | -0.302 ± 0.5 |
| TEEKSRVRLFNRRHRGISRG | 3.95 ± 0.091 |
| TEGFGW | 1.28 ± 0.35 |
| TEMDDF | 0.875 ± 0.54 |
| TEVWCIQLY | 0.787 ± 0.46 |
| TEYVTLLGLSLGFVLASLGA | 0.283 ± 0.43 |
| TFADNF | -1.28 ± 1.1 |

| Substance | amyloid nucleation score |
| --- | --- |
| TFGPTHLGLVKYVEIDYHVA | -0.725 ± 0.9 |
| TFIYSRECRRTSVWQPFNNR | -0.704 ± 0.65 |
| TFMAARQWLGPNYDGGQGLK | -0.2 ± 1 |
| TFVACDLKCPRCAWVGDFVM | -0.912 ± 0.5 |
| TGFKI | -0.973 ± 0.97 |
| TGLCDRLRSLEGAAAVR | 0.514 ± 0.49 |
| TGLSCCCMNISRNGREMVPR | 6.281 ± 0.058 |
| TGLVLVGMSVSCVRYRCSND | 0.009 ± 0.39 |
| TGLWNRIEVPVDKTEAKQPV | 0.076 ± 0.42 |
| TGNGRDVLHSSALKVPNRR | 0.715 ± 0.43 |
| TGNHSEVTT | 0.233 ± 0.32 |
| TGSTR | 0.391 ± 0.22 |
| TGVRHATTC | 1.13 ± 0.19 |
| TGYRSTYLNEVTPIRIMPHR | 0.905 ± 0.4 |
| TGYVIGWVSWTSWWEMGLYR | -2.43 ± 2.4 |
| THARMKFLWFARF | -0.282 ± 0.83 |
| THGVSWQLVRDAILNGGPKR | -1.12 ± 1.3 |
| THKFLRTRTYFMSVRSVNYW | 1.19 ± 0.41 |
| THLLPFAGIGVCDLVRSAMG | 0.668 ± 0.93 |
| THMGWVMHYSYETTPHARPG | 3.84 ± 0.14 |
| THTRCLLVW | 0.216 ± 0.46 |
| THYIFLVYLWVYPGTDGWQR | inactive |
| TIAGHYYLWS | -0.291 ± 0.78 |
| TIALM | 0.335 ± 0.33 |
| TICSSTFNFCSCFVTYLRMG | 4.83 ± 0.072 |

| Substance | amyloid nucleation score |
| --- | --- |
| TIFAWAKHGQSNTVSRLGGF | 0.118 ± 0.44 |
| TIINLGILLYYVGFFSIDPG | 5.866 ± 0.052 |
| TIQMFAVSTCCFFRFTLHWN | -0.598 ± 0.56 |
| TKGYLWPRKQTAFVWIAMCG | -0.187 ± 0.27 |
| TKIHLPYCYANLVNHSVQHK | 0.704 ± 0.61 |
| TKLTSVYMK | -0.355 ± 0.62 |
| TKMHCVGGSSRTNKSLWTIY | 1.08 ± 0.57 |
| TKTTVHCFSSMIQYCAAPTL | -0.158 ± 0.73 |
| TKVDRLALSM | 0.658 ± 0.59 |
| TKWLLP | 0.504 ± 0.57 |
| TKWTGVFIWSLKAD | -0.051 ± 0.84 |
| TLCSSGKGRCLVAVT | 0.115 ± 1 |
| TLDFMLIKLSERLHLRC | 0.589 ± 0.3 |
| TLEFLMPSYLFHLGRMVNLS | -0.927 ± 1.4 |
| TLFMRVGYR | 3.87 ± 0.12 |
| TLGVMEGRNSDSLTVCRVGS | 1.06 ± 0.5 |
| TLLNGFFATSYCGCFFGSRT | 3.95 ± 0.13 |
| TLMGQWGWFSSVAYNNAGIV | -1.36 ± 0.86 |
| TLSIFVLRIGARYNMLSLIQ | 0.095 ± 0.59 |
| TLSISTMIAAVGTLSVCGDM | 0.768 ± 0.16 |
| TLSKYQS | 0.221 ± 0.53 |
| TLTVRRCSCQVQWGLRMFHL | -0.653 ± 1.4 |
| TLVKVRSELYSGRDAYELVS | 0.035 ± 0.26 |
| TMGVTIYGCWCDLNTSLVFG | -0.104 ± 0.24 |
| TMICFVVGFFGIQDKVVKCD | 0.135 ± 0.84 |

| Substance | amyloid nucleation score |
| --- | --- |
| TMNNFVLKSAFLKSAFTTGV | -1.04 ± 2.1 |
| TMSRQHKTGPNGSRAL | -0.073 ± 0.79 |
| TMVCFVLDNCICKSLVTTCL | inactive |
| TNCDVVNSCTFGGNGDY | 0.151 ± 1.1 |
| TNFDGYLFRFHIWRGCLVT | 0.188 ± 1 |
| TNMMYVYFKVI | inactive |
| TNSFSVGCVRIP | 0.657 ± 0.68 |
| TNSFYYGSVSTCYSRCNCKF | 7.362 ± 0.048 |
| TNSTISYFARFVVIWLGKIA | -0.488 ± 0.86 |
| TPCLKQLLLSSLILEGP | -0.6 ± 0.64 |
| TPFGSVMVGYWQPIPLRDLG | 0.634 ± 0.54 |
| TPLYDIWDVSVDLPLPCIFS | inactive |
| TPVTRIILVVVIRVPSGSGY | -1.03 ± 0.8 |
| TQHRRLVSRSQEFNVTQLKW | 2.3 ± 0.27 |
| TQLSMWSVRIKISYWVSGGV | 0.804 ± 1.1 |
| TQPMSF | inactive |
| TQRFFIVRMPSVCNNYYHLA | 4.52 ± 0.067 |
| TQSGVIQDAACPAMGMSNVL | 0.289 ± 0.66 |
| TQSRPLETGCPQLERSGLLA | -0.692 ± 0.81 |
| TRCCGFKRGGFVSYWMGSRP | 1.01 ± 0.51 |
| TRCINVYHPLCI | -0.875 ± 0.36 |
| TRCKTGSLRLNYVDISQPHV | 0.683 ± 0.8 |
| TRFLGYWADLSICMPSYGCR | -0.209 ± 1 |
| TRKWEYTSKVRVQRGSVYLL | 0.13 ± 0.65 |
| TRNLMPSRSFG | 2.08 ± 0.28 |

| Substance | amyloid nucleation score |
| --- | --- |
| TRPLQYIQ | -0.045 ± 1.1 |
| TRQYIEVSVNLCYIVVDKKN | -0.203 ± 0.39 |
| TRWQITDPYSPCTWSCSWTQ | 0.906 ± 1 |
| TSCFCI | -0.133 ± 0.33 |
| TSFCGLVAPQLCKFSMRSLE | -0.504 ± 0.47 |
| TSFCIETSGSILIELYGCWA | -0.356 ± 0.5 |
| TSHSCHIVGAFMKKCWFSST | -0.057 ± 0.65 |
| TSKERSLCSKDVT | 0.393 ± 0.55 |
| TSLYNCRVRRLYFWWLRIML | 1.14 ± 0.7 |
| TSNHML | 0.226 ± 0.61 |
| TSNLHTHGSVFDFWG | 0.732 ± 0.55 |
| TSQVSGRHVVSIDWTIWLSL | 0.616 ± 0.66 |
| TSRFPKASKSRLTRDCP | 0.323 ± 0.35 |
| TSTARISQPDNRVGLNF | -0.032 ± 0.44 |
| TSTLVMTNKMVLDSVE | -0.543 ± 0.25 |
| TSVTSVMWPYSPNGYLAVFR | -0.062 ± 1.2 |
| TSYGISLPAHP | 0.541 ± 0.75 |
| TTALDFRMDAMEVFRRFDEA | 0.14 ± 0.39 |
| TTFTRVTLICSPPVQAKLGR | 0.399 ± 0.27 |
| TTGKFDLFGDYHRGSLYSSV | -0.768 ± 0.49 |
| TTGSGSRSNWWYGSPNYYLS | -0.867 ± 0.53 |
| TTIAIRVLFQIVMVVSESRS | -0.247 ± 0.24 |
| TTIQGRPVNVAAFRTTLLTR | -1.11 ± 2.7 |
| TTIYRY | 0.234 ± 0.9 |
| TTLPREYYHRRVSVG | 0.373 ± 0.43 |

| Substance | amyloid nucleation score |
| --- | --- |
| TTLVLTADLAVNPRRWWTMI | 0.373 ± 0.43 |
| TTSWDYFGAKEIIRFVMVTC | -2.12 ± 2.7 |
| TVDGTECCWVDTRNNSRMVK | -0.941 ± 0.78 |
| TVFGVL | 0.705 ± 0.77 |
| TVHFSDWMIPNTRLEATCGM | 0.158 ± 0.31 |
| TVHTLSIFFSGRAFAANPFS | 2.36 ± 0.16 |
| TVIFMCLTAFGTSGNHIGSR | -0.776 ± 0.81 |
| TVIIWDENIWYFGAYAW | -1.53 ± 0.83 |
| TVKSWKFNRFIGLKRSTESL | 0.238 ± 0.42 |
| TVLDFCFWYAGVVFKYARFV | -0.932 ± 0.39 |
| TVMANKY | -0.16 ± 0.32 |
| TVNARVGVSIFYYWV | 0.345 ± 0.93 |
| TVNCGQSSMWDFWTGLTECG | -0.22 ± 0.75 |
| TVRQTGRVPMTGLIMFW | 1.95 ± 0.19 |
| TVSSLSWDGMPLLPVTLIFS | -1.01 ± 1.2 |
| TVTLGVPRQCAGTCRMVSLN | inactive |
| TVVHPFSYA | 0.487 ± 0.49 |
| TVWKSLLHNSAAAGV | 0.109 ± 1.6 |
| TWCIAVVSEILLLHI | inactive |
| TWDFSFDQGIKY | -0.125 ± 0.32 |
| TWIVEELFIGDRLALREGFR | 0.406 ± 0.63 |
| TWKAIWSEWYRTVPTGVLSN | 0.461 ± 0.42 |
| TWLYEIHTILMIGGIMRKRG | 0.734 ± 0.45 |
| TWNAFRRLWVTSDGYTRVLT | 1.23 ± 0.41 |
| TWQFCDVRL | -0.064 ± 0.39 |

| Substance | amyloid nucleation score |
| --- | --- |
| TWQLNIYMEKFSGVEKSSTV | 7.841 ± 0.053 |
| TWSRNIINFRIFWYTLFQVH | 0.005 ± 0.29 |
| TYCKASGVR | 0.371 ± 0.75 |
| TYCMYDYRKAVGEGWQFR | 0.124 ± 0.38 |
| TYCNMVITRQRNA | 0.685 ± 0.38 |
| TYHFIYEWISLTIT | inactive |
| TYIFVIPHLVRSTDWTLFAE | 0.017 ± 0.33 |
| TYILVFSVIYPSLKYECFCQ | 1.6 ± 0.61 |
| TYIYSTILEVFYLSLGHVII | 0.775 ± 0.35 |
| TYMFGHMGADMKGRRSWWCE | 0.354 ± 0.44 |
| TYRNS | -0.891 ± 1.2 |
| TYRVVFVAGIHQFNFVPLVR | 0.009 ± 1.1 |
| TYSWEDCTYGITPSGTYRSN | 1.33 ± 0.38 |
| TYYNLYSVRGGCFAHDVLAC | 0.234 ± 0.31 |
| VAADMEARYIFCYIINVDAR | 4.98 ± 0.083 |
| VAFRLTIGCVVSVSINVAGV | 1.19 ± 0.62 |
| VAFWFVLGWKGSLYYKGLAD | 0.334 ± 1.1 |
| VALLTNWFTGPQPLTMFTRV | 1.14 ± 0.9 |
| VALWYFCCVVAYYGGARLVS | 2.06 ± 0.33 |
| VAMILYGFTFWILRCNEWCR | 0.377 ± 0.24 |
| VAMRIWLVNACLGG | 0.092 ± 0.63 |
| VASFRMG | 1.37 ± 0.14 |
